In patent US8273705B2, “Conversion of apoptotic proteins” (The Burnham Institute, priority 2002, dated 2012):

Key:
HEK293T cells = assay: Subcellular fractionation, heavy membrane (HM) fractions of HEK293T cells; format: cell-based, human
Protocol: Subcellular localization assays—Cells were seeded onto cover-slips in 6-well plates overnight, then transiently transfected with GFP-fusion expression plasmids. After 16 hours, cells were washed with PBS and fixed in 4% paraformaldehyde. For mitochondrial staining, cells were then incubated with anti-Hsp60 goat IgG (Santa Cruz, USA), followed by anti-goat IgG conjugated with Cy3 (Sigma). For cyt c staining, cells were incubated with monoclonal anti-cyt c IgG (PharMingen), followed by anti-mouse IgG conjugated with Cy5 (Amersham). Fluorescent images were collected and analyzed using a MRC-1024 MP laser-scanning confocal microscope (Bio-Rad). Subcellular fractionation assays were performed as described (Li, et al. 2000 Science 289:1159-1164). Briefly, cells (1×10^7 cells) suspended in 0.5 ml hypotonic buffer (5 mM Tris-HCl, pH 7.4, 5 mM KCl, 1.5 mM MgCl2, 0.1 mM EGTA, pH 8.0, and 1 mM DTT) were homogenized and cell extracts were centrifuged at 500×g for 5 min. The resulting supernatant was centrifuged at 10,000×g for 30 min at 4° C. to obtain the HM fraction. HM fraction was resuspended in 100 μl lysis buffer (10 mM Tris, pH 7.4, 150 mM NaCl, 1% Triton X-100, 5 mM EDTA, pH 8.0) for immunoblotting analysis. […]

293T cells = assay: DAPI apoptosis assay in 293T cells; format: cell-based, human
Protocol: Apoptosis assays—For nuclear morphological change analysis, cells were trypsinized, washed with PBS, fixed with 3.7% paraformaldehyde, and stained with DAPI (4,6-diamidino-2-phenylindole) (50 μg/ml) to visualize the nuclei by UV-microscopy. The percentages of apoptotic cells were determined by counting 300 GFP-positive cells, scoring cells having nuclear fragmentation and/or chromatin condensation.
DAPI staining was used to study the apoptotic effect of TR3/Bcl-2 interaction. 293T cells were transfected with GFP-TR3/ΔDBD alone or together with Bcl-2. After 36 h, nuclei were stained by DAPI and nuclear fragmentation and chromatin condensation were identified. Cells were also stained with anti-Bcl-2 antibody, followed by TRITC-conjugated secondary antibody (Sigma). Bcl-2 and GFP-ΔDBD expression and nuclear morphology were visualized by fluorescence microscopy, and the two images were overlaid. […] But, when Bcl-2 was cotransfected, a significant amount of transfected cells underwent apoptosis. For example, approximately 4% of cells transfected with either TR3/ΔDBD or Bcl-2 were apoptotic, compared to 35% of cell transfected with both. […] Cotransfection of Bcl-2, however, prevented BAX-induced apoptosis in these cells (see FIG. 4). The effect of Bcl-2 on apoptotic potential of TR3/ΔDBD in lung cancer and breast cancer cells was also investigated.
To characterize the pro-apoptotic mechanism of Bcl-2 in the setting of TR3-induced apoptosis, various TR3 mutants and Bcl-2 mutants were co-expressed in HEK293T cells. TR3 mutants were transfected into 293T cells together with or without Bcl-2 expression vector or with Bcl-2 mutants. After 36 h, nuclei were stained by DAPI. Cells displaying nuclear condensation or fragmentation were scored.
The role of various Bcl-2 mutants in mediating apoptosis induction by TR3 was next studied. […] The hydrophobic cleft of Bcl-2 is involved in its anti-apoptotic effect through its interaction with BH3 domain of pro-apoptotic molecules (Reed 1997 Semin Hematol 34:9-19; Reed 1997 Nature 387:773-776). To investigate whether the BH3 domain-binding motif of Bcl-2 is also involved in its apoptotic effect, various Bcl-2 mutants including Y108K Bcl-2, with a mutation in the BH3 domain-binding cleft, L137A, and G145A (all with impaired interaction with bax), were cotransfected together with TR3/ΔDBD. […] Bcl-2 mutations (Y108K, L137A, G145A) that impaired its interaction with Bax, abolished the Bcl-2 inhibitory effect on Bax-induced apoptosis, consistent with previous observations that the hydrophobic cleft of Bcl-2 is essential for its anti-apoptotic effect. […] Thus, an intact BH3 domain-binding motif in Bcl-2 is involved in its pro-apoptotic effect. In contrast to the inhibitory effect of Bcl-2 on Bax-induced apoptosis TR3/ΔDBD-induced apoptosis was augmented by co-expression of Bcl-2 in HEK293T cells.
Mitochondrial targeting of TR3 has been previously identified as being involved in its apoptotic effect. To study whether mitochondrial localization of the TR3/ΔDBD/Bcl-2 complex was involved in their apoptotic effect, TR3/ΔDBD was cotransfected with Bcl-2/ATM, a Bcl-2 lacking its transmembrane domain. […] Thus, mitochondrial localization of TR3/ΔDBD/Bcl-2 complex is involved in this apoptotic effect.

[1] = 293T, co-expressed with Bcl-2, 36 h, DAPI

| Molecule | accumulation in HM fraction (HEK293T cells; presence of Bcl-2) | apoptosis (293T cells; [1]) | apoptosis (293T cells; 293T, coexpression with Bcl-2/ΔTM) | apoptosis (293T cells; 293T, cotransfected with Bcl-2 Y108K) | apoptotic cells (293T cells; 293T, transfected alone, 36 h, DAPI) | apoptotic cells (293T cells; 293T, transfected with both TR3/ΔDBD and Bcl-2, 36 h, DAPI) [%] | apoptosis (293T cells; HEK293T, co-expression with Bcl-2/ΔLoop) | apoptosis (293T cells; co-expressed with Bcl-2 L137A and G145A) | apoptosis (293T cells; co-expressed with Bcl-2 mutants lacking TM, BH1, BH2 or BH3 domain) | accumulation in HM fraction (HEK293T cells; either in the absence or presence of Bcl-2) |
| --- | --- | --- | --- | --- | --- | --- | --- | --- | --- | --- |
| TR3/ΔDBD: TR3 mutant with the DNA binding domain removed; used as GFP fusion (protein, left off: large carriers; small tags and cut ends, used as GFP fusion) MPCIQAQYGTPAPSPGPRDHLASDPLTPEFIKPTMDLASPEAAPAAPTALPSFSTFMDGYTGEFDTFLYQLPGTVQPCSSASSSASSTSSSSATSPASASFKFEDFQVYGCYPGPLSGPVDEALSSSGSDYYGSPCSAPSPSTPSFQPPQLSPWDGSFGHFSPSQTYLVLHRLQCARGFGDWIDSILAFSRSLHSLLVDVPAFACLSALVLITDRHGLQEPRRVEELQNRIASCLKEHVAAVAGEPQPASCLSRLLGKLPELRTLCTQGLQRIFYLKLEDLVPPPPIIDKIFMDTLPF | accumulated in the HM fraction | augmented | did not result in apoptosis | unable to induce apoptosis | approximately 4% | 35 | did not induce cell death | retained the ability to promote apoptosis | incapable of inducing apoptosis |  |
| TR3/ΔDBD/Δ471-488: TR3/ΔDBD with eighteen amino acids from 471 to 488 in the DC1 region deleted (protein, left off: large carriers; small tags and cut ends, TR3/ΔDBD with eighteen amino acids from 471 to 488 in the DC1 region deleted) MPCIQAQYGTPAPSPGPRDHLASDPLTPEFIKPTMDLASPEAAPAAPTALPSFSTFMDGYTGEFDTFLYQLPGTVQPCSSASSSASSTSSSSATSPASASFKFEDFQVYGCYPGPLSGPVDEALSSSGSDYYGSPCSAPSPSTPSFQPPQLSPWDGSFGHFSPSQTYLVLFSRSLHSLLVDVPAFACLSALVLITDRHGLQEPRRVEELQNRIASCLKEHVAAVAGEPQPASCLSRLLGKLPELRTLCTQGLQRIFYLKLEDLVPPPPIIDKIFMDTLPF |  | failed to confer the apoptotic potential of Bcl-2 |  |  |  |  |  |  |  | not found in the HM fraction |
